Assay results: PMC6588440 (Free radical biology & medicine, 2019)

B1: Peroxiredoxin 2 (Prx2) (natural protein, UniProt P32119 1-198, looked up)
chain: MASGNARIGKPAPDFKATAVVDGAFKEVKLSDYKGKYVVLFFYPLDFTFVCPTEIIAFSNRAEDFRKLGCEVLGVSVDSQFTHLAWINTPRKEGGLGPLNIPLLADVTRRLSEDYGVLKTDEGIAYRGLFIIDGKGVLRQITVNDLPVGRSVDEALRLVQAFQYTDEHGEVCPAGWKPGSDTIKPNVDDSKEYFSKHN
modifications: inter-subunit disulfide (oxidized dimer); reduced thiols alkylated with NEM before lysis
B2: Peroxiredoxin 3 (Prx3) (natural protein, UniProt P30048 62-256, looked up)
chain: APAVTQHAPYFKGTAVVNGEFKDLSLDDFKGKYLVLFFYPLDFTFVCPTEIVAFSDKANEFHDVNCEVVAVSVDSHFSHLAWINTPRKNGGLGHMNIALLSDLTKQISRDYGVLLEGSGLALRGLFIIDPNGVIKHLSVNDLPVGRSVEETLRLVKAFQYVETHGEVCPANWTPDSPTIKPSPAASKEYFQKVNQ
modifications: inter-subunit disulfide (oxidized dimer); reduced thiols alkylated with NEM before lysis
B3: Peroxiredoxin 1 (Prx1) (natural protein, UniProt Q06830 1-199, looked up)
chain: MSSGNAKIGHPAPNFKATAVMPDGQFKDISLSDYKGKYVVFFFYPLDFTFVCPTEIIAFSDRAEEFKKLNCQVIGASVDSHFCHLAWVNTPKKQGGLGPMNIPLVSDPKRTIAQDYGVLKADEGISFRGLFIIDDKGILRQITVNDLPVGRSVDETLRLVQAFQFTDKHGEVCPAGWKPGSDTIKPDVQKSKEYFSKQK
modifications: inter-subunit disulfide (oxidized dimer); reduced thiols alkylated with NEM before lysis

Target: the molecule itself
Assay: non-reducing SDS-PAGE immunoblot

Stoichiometry N, 2:
B1
B2
B3
